Experimental data as given in patent publication US20210214461A1.

Assays:
[1] = target: pre-existing anti-scFv903 antibodies in human serum H135 (human); experiment: competition ADA bridging ELISA
[2] = target: pre-existing anti-scFv903 antibodies in human serum H46 (human); experiment: competition ADA bridging ELISA
[3] = target: pre-existing anti-scFv903 antibodies in human serum H49 (human); experiment: competition ADA bridging ELISA
[4] = target: pre-existing anti-scFv903 antibodies in human serum H54 (human); experiment: competition ADA bridging ELISA
[5] = target: pre-existing anti-scFv903 antibodies in human serum H59 (human); experiment: competition ADA bridging ELISA
[6] = target: pre-existing anti-scFv903 antibodies in human serum H66 (human); experiment: competition ADA bridging ELISA
[7] = target: pre-existing anti-scFv903 antibodies in human serum H80 (human); experiment: competition ADA bridging ELISA
[8] = target: pre-existing anti-scFv903 antibodies in human serum H96 (human); experiment: competition ADA bridging ELISA
[9] = target: pre-existing anti-scFv903 antibodies in human serum H105 (human); experiment: competition ADA bridging ELISA, 100 mcg/ml competitor
[10] = target: pre-existing anti-scFv903 antibodies in human serum H115 (human); experiment: as above
[11] = target: pre-existing anti-scFv903 antibodies in human serum H116 (human); experiment: as above
[12] = target: pre-existing anti-scFv903 antibodies in human serum H125 (human); experiment: as above
[13] = target: pre-existing anti-scFv903 antibodies in human serum H135 (human); experiment: as above
[14] = target: pre-existing anti-scFv903 antibodies in human serum H14 (human); experiment: as above
[15] = target: pre-existing anti-scFv903 antibodies in human serum H15 (human); experiment: as above
[16] = target: pre-existing anti-scFv903 antibodies in human serum H19 (human); experiment: as above
[17] = target: pre-existing anti-scFv903 antibodies in human serum H20 (human); experiment: as above
[18] = target: pre-existing anti-scFv903 antibodies in human serum H21 (human); experiment: as above
[19] = target: pre-existing anti-scFv903 antibodies in human serum H26 (human); experiment: as above
[20] = target: pre-existing anti-scFv903 antibodies in human serum H29 (human); experiment: as above
[21] = target: pre-existing anti-scFv903 antibodies in human serum H3 (human); experiment: as above
[22] = target: pre-existing anti-scFv903 antibodies in human serum H40 (human); experiment: as above
[23] = target: pre-existing anti-scFv903 antibodies in human serum H46 (human); experiment: as above
[24] = target: pre-existing anti-scFv903 antibodies in human serum H49 (human); experiment: as above
[25] = target: pre-existing anti-scFv903 antibodies in human serum H50 (human); experiment: as above
[26] = target: pre-existing anti-scFv903 antibodies in human serum H53 (human); experiment: as above
[27] = target: pre-existing anti-scFv903 antibodies in human serum H54 (human); experiment: as above
[28] = target: pre-existing anti-scFv903 antibodies in human serum H55 (human); experiment: as above
[29] = target: pre-existing anti-scFv903 antibodies in human serum H56 (human); experiment: as above
[30] = target: pre-existing anti-scFv903 antibodies in human serum H59 (human); experiment: as above
[31] = target: pre-existing anti-scFv903 antibodies in human serum H60 (human); experiment: as above
[32] = target: pre-existing anti-scFv903 antibodies in human serum H63 (human); experiment: as above
[33] = target: pre-existing anti-scFv903 antibodies in human serum H64 (human); experiment: as above
[34] = target: pre-existing anti-scFv903 antibodies in human serum H66 (human); experiment: as above
[35] = target: pre-existing anti-scFv903 antibodies in human serum H69 (human); experiment: as above
[36] = target: pre-existing anti-scFv903 antibodies in human serum H76 (human); experiment: as above
[37] = target: pre-existing anti-scFv903 antibodies in human serum H79 (human); experiment: as above
[38] = target: pre-existing anti-scFv903 antibodies in human serum H8 (human); experiment: as above
[39] = target: pre-existing anti-scFv903 antibodies in human serum H80 (human); experiment: as above
[40] = target: pre-existing anti-scFv903 antibodies in human serum H81 (human); experiment: as above
[41] = target: pre-existing anti-scFv903 antibodies in human serum H86 (human); experiment: as above
[42] = target: pre-existing anti-scFv903 antibodies in human serum H96 (human); experiment: as above

signal change in competition ELISA (% reduction in OD) [1]: -95%
signal change in competition ELISA (% reduction in OD) [2]: -77%
signal change in competition ELISA (% reduction in OD) [3]: -81%
signal change in competition ELISA (% reduction in OD) [4]: -92%
signal change in competition ELISA (% reduction in OD) [5]: -96%
signal change in competition ELISA (% reduction in OD) [6]: -96%
signal change in competition ELISA (% reduction in OD) [7]: -85%
signal change in competition ELISA (% reduction in OD) [8]: -79%
% reduction in OD [9]: -96.9%
% reduction in OD [10]: -94.8%
% reduction in OD [11]: -97.2%
% reduction in OD [12]: -97.4%
% reduction in OD [13]: -95.2%
% reduction in OD [14]: -96.5%
% reduction in OD [15]: -90%
% reduction in OD [16]: -84.3%
% reduction in OD [17]: -96.1%
% reduction in OD [18]: -85.3%
% reduction in OD [19]: -96.8%
% reduction in OD [20]: -78.7%
% reduction in OD [21]: -85%
% reduction in OD [22]: -94.6%
% reduction in OD [23]: -77.1%
% reduction in OD [24]: -81.2%
% reduction in OD [25]: -88.5%
% reduction in OD [26]: -34.6%
% reduction in OD [27]: -91.7%
% reduction in OD [28]: -96%
% reduction in OD [29]: -15.1%
% reduction in OD [30]: -96.4%
% reduction in OD [31]: -94.8%
% reduction in OD [32]: -19.7%
% reduction in OD [33]: -95.5%
% reduction in OD [34]: -96.4%
% reduction in OD [35]: -74.7%
% reduction in OD [36]: -48.6%
% reduction in OD [37]: -96.8%
% reduction in OD [38]: -90.7%
% reduction in OD [39]: -85.3%
% reduction in OD [40]: -94.4%
% reduction in OD [41]: -86.7%
% reduction in OD [42]: -78.5%
B1: scFv 791 (scFv)
scFv: MEIVMTQSPSTLSASLGDRVIITCQSSQSVYGNIWMAWYQQKSGKAPKLLIYQASKLASGVPSRFSGSGSGAEFSLTISSLQPDDFATYYCQGNFNTGDRYAFGQGTKLTVLGGGGGSGGGGSGGGGSGGGGSEVQLVESGGGLVQPGGSLRLSCTASGFTISRSYWICWVRQAPGKGLEWVACIYGDNDITPLYANWAKGRFPVSTDTSKNTVYLQMNSLRAEDTAVYYCARLGYADYAYDLWGQGTLVTVSS
